± gives the uncertainty stated by the source.
Test: self-splicing fitness, log relative to wild type (ln ratio); higher = more splicing; Tetrahymena group I intron in knt gene, E. coli kanamycin selection, DiMSum; sequences stand for … in CUCUCU…GGAGGGAAAAGUUAUCAGGCAUGCACCUGGUAGCUAGUCUUUAAACCAAUAGAUUGCAUCGGUUUAAAAGGCAAGACCGUCAAAUUGCGGGAAAGGGGUCAACAGCCGUUCAGUACCAAGUCUCAGGGGAAACUUUGAGAUGGCCUUGCAAAGGGUAUGGUAAUAAGCUGACGGACAUGGUCCUAACCACGCAGCCAAGUCCUAAGUCAACAGAUCUUCUGUUGAUAUGGAUGCAGUUCACAGACUAAAUGUCGGUCGGGGAAGAUGUAUUCUUCUCAUAAGAUAUAGUCGGACCUCUCCUUAAUGGGAGCUAGCGGAUGAAGUGAUGCAACACUGGAGCCGCUGGGAACUAAUUUGUAUGCGAAAGUAUAUUGAUUAGUUUUGGAGUACUCGUGGUCG
How it was run: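 The eight P1ex-region nucleotides of an intron in the knt kanamycin-resistance gene on pET-22b(+) were all randomised and the library put into E. coli BL21(DE3). Six replicate transformations were grown overnight at 37°C or 30°C on LB agar with or without 25 μg/mL kanamycin, together with 100 μg/mL carbenicillin, 50 μM IPTG and 0.2% rhamnose. Colonies were pooled and amplicon-sequenced on an Illumina HiSeq 2500. Fitness from DiMSum is the error-weighted combination of wild-type-normalised replicate fold changes, kanamycin over none.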

Sequence | self-splicing fitness (ln) (30 °C) | self-splicing fitness (ln) (37 °C)
GACAAGCAAUAUUACGACAC | -0.384 ± 0.071 | 0.0329 ± 0.11
UCUGAGCAAUAUUACGUUAC | -3.38 ± 0.2 | -2.33 ± 0.22
CAGGAGCAAUAUUACGCGAU | -3.06 ± 0.28 | 
GGGCAGCAAUAUUACGAUUC | -0.524 ± 0.17 | 0.155 ± 0.15
CCCUAGCAAUAUUACGGAUG | -3.17 ± 0.15 | -1.53 ± 0.11
UACAAGCAAUAUUACGCAUU | -3.38 ± 0.19 | -1.63 ± 0.16
UUGUAGCAAUAUUACGCGGG | -3 ± 0.25 | -2.32 ± 0.16
UAUCAGCAAUAUUACGCAGG | -1.01 ± 0.055 | 0.028 ± 0.07
GUCUAGCAAUAUUACGACUC | -0.625 ± 0.13 | -0.52 ± 0.15
UGUCAGCAAUAUUACGAGUA | -1.31 ± 0.066 | -0.775 ± 0.073
UUGCAGCAAUAUUACGGGCG | -0.91 ± 0.11 | -0.511 ± 0.11
CAAUAGCAAUAUUACGAGCG | -0.254 ± 0.077 | 0.281 ± 0.098
AAAGAGCAAUAUUACGACAC | -2.67 ± 0.29 | -1.89 ± 0.41
AAUGAGCAAUAUUACGGUGG | -3.48 ± 0.21 | -1.89 ± 0.24
UGGUAGCAAUAUUACGCCUG | 0.0915 ± 0.14 | 0.675 ± 0.2
UACUAGCAAUAUUACGGAGC | -1.89 ± 0.25 | -2.56 ± 0.3
UAAGAGCAAUAUUACGUCGU | -4.06 ± 0.31 | -3.11 ± 0.43
ACAAAGCAAUAUUACGUAAC | -3.21 ± 0.21 | -1.67 ± 0.14
GACGAGCAAUAUUACGUAGA | -2.81 ± 0.26 | -1.98 ± 0.22
GCCGAGCAAUAUUACGUAUA | -3.29 ± 0.15 | -1.87 ± 0.12
UUCUAGCAAUAUUACGCCGA | -0.96 ± 0.23 | 0.163 ± 0.25
AAUUAGCAAUAUUACGACAC | -0.631 ± 0.11 | -0.0896 ± 0.14
GGGAAGCAAUAUUACGCAUC | -2.36 ± 0.39 | -1.77 ± 0.32
UUCCAGCAAUAUUACGUUAA | -1.16 ± 0.079 | 0.606 ± 0.093
UGGCAGCAAUAUUACGUUGU | -3.71 ± 0.29 | -3.17 ± 0.3
CGACAGCAAUAUUACGUUUA | -1.81 ± 0.11 | -0.394 ± 0.087

Sequence | self-splicing fitness (ln) (30 °C) | self-splicing fitness (ln) (37 °C)
CUUGAGCAAUAUUACGUUGG | -2.66 ± 0.28 | -0.601 ± 0.18
AUUCAGCAAUAUUACGCAUA | -0.701 ± 0.15 | -1.07 ± 0.14
CUACAGCAAUAUUACGUUCG | -0.275 ± 0.063 | 0.0364 ± 0.083
UCAAAGCAAUAUUACGUCUC | -4.01 ± 0.36 | -1.5 ± 0.19
AUAUAGCAAUAUUACGCGCC | -1.51 ± 0.33 | -1.35 ± 0.41
UCCAAGCAAUAUUACGCGGU | -2.56 ± 0.13 | -1.92 ± 0.16
GAGGAGCAAUAUUACGGGAC | -2.42 ± 0.27 | -2.41 ± 0.27
GACUAGCAAUAUUACGCGAA | -1.83 ± 0.18 | -0.638 ± 0.17
GUGAAGCAAUAUUACGAGUG | -0.702 ± 0.094 | -0.702 ± 0.13
AAAAAGCAAUAUUACGAGUC | -3.46 ± 0.22 | -1.28 ± 0.19
ACAUAGCAAUAUUACGUUAC | -1.52 ± 0.22 | 
UGCAAGCAAUAUUACGCGGG | -3.73 ± 0.27 | -2.42 ± 0.22
CGACAGCAAUAUUACGACCA | -0.898 ± 0.1 | -0.397 ± 0.12
CGUCAGCAAUAUUACGUUUC | -3 ± 0.14 | -3.06 ± 0.21
UGUGAGCAAUAUUACGUGCC | -2.51 ± 0.3 | 
GAACAGCAAUAUUACGUCAA | -1.14 ± 0.057 | -0.166 ± 0.06
GCCCAGCAAUAUUACGCGCU | -3.29 ± 0.18 | -2.41 ± 0.2
UCAUAGCAAUAUUACGCCUU | -3.75 ± 0.4 | -1.52 ± 0.33
CCGGAGCAAUAUUACGACGU | -0.341 ± 0.08 | -0.163 ± 0.096
CGAUAGCAAUAUUACGAUAA | -3.37 ± 0.27 | -2.2 ± 0.35
AAUCAGCAAUAUUACGCGUA | -0.281 ± 0.068 | 0.0946 ± 0.082
GGGUAGCAAUAUUACGGAAU | -0.368 ± 0.12 | -0.661 ± 0.19
GUUGAGCAAUAUUACGGGAG |  | -2.9 ± 0.38
CCUUAGCAAUAUUACGGCUA | -2.52 ± 0.45 | -1.75 ± 0.37
AGUAAGCAAUAUUACGUCCG | -2.03 ± 0.17 | -0.809 ± 0.21
CCAAAGCAAUAUUACGCCUC | -3.33 ± 0.29 | -2.52 ± 0.32

Sequence | self-splicing fitness (ln) (30 °C) | self-splicing fitness (ln) (37 °C)
GUCAAGCAAUAUUACGCACU | -1.71 ± 0.062 | -0.433 ± 0.072
GCGGAGCAAUAUUACGAUGA | -3.1 ± 0.23 | -2.23 ± 0.26
UUCCAGCAAUAUUACGGAAA | -1.86 ± 0.13 | -1.34 ± 0.11
UAUAAGCAAUAUUACGUGAC | -2.15 ± 0.19 | -0.695 ± 0.3
ACGGAGCAAUAUUACGAAUG | -3.88 ± 0.43 | -0.307 ± 0.27
UCCUAGCAAUAUUACGUCUA |  | -2.69 ± 0.38
AUGUAGCAAUAUUACGUGAC | -4.13 ± 0.34 | -0.782 ± 0.2
GUACAGCAAUAUUACGCGUU | -2.61 ± 0.15 | -1.35 ± 0.14
GUCUAGCAAUAUUACGAACU | -1.9 ± 0.2 | -1.12 ± 0.19
CUUUAGCAAUAUUACGGACG | -0.38 ± 0.07 | -0.273 ± 0.11
AUGUAGCAAUAUUACGGGAA | -2.34 ± 0.38 | -3.07 ± 0.47
GCAUAGCAAUAUUACGCACC | -1.28 ± 0.21 | 
GAGCAGCAAUAUUACGGAUU | -1.2 ± 0.1 | 0.538 ± 0.11
CGUGAGCAAUAUUACGAAGG | -2.37 ± 0.14 | -1.42 ± 0.14
UGCCAGCAAUAUUACGCGUG | -1.71 ± 0.086 | -0.381 ± 0.089
GUAAAGCAAUAUUACGGGGA | -2.91 ± 0.19 | -2.4 ± 0.21
CAUCAGCAAUAUUACGUACC | -2.74 ± 0.3 | -1.63 ± 0.28
CGACAGCAAUAUUACGAGCC | -3.59 ± 0.22 | -1.68 ± 0.26
UUAAAGCAAUAUUACGCGGA | -0.811 ± 0.097 | 0.458 ± 0.1
AGCUAGCAAUAUUACGCGUU | -2.62 ± 0.091 | -2.11 ± 0.12
GCCGAGCAAUAUUACGAGAA | -2.99 ± 0.19 | -0.755 ± 0.12
UAAGAGCAAUAUUACGGGGG | -2.94 ± 0.22 | 
ACAAAGCAAUAUUACGUCCA | -1.62 ± 0.097 | -0.403 ± 0.1
UUCGAGCAAUAUUACGAGCC | -3.05 ± 0.21 | -2.68 ± 0.36
GAUCAGCAAUAUUACGAACC | -0.755 ± 0.19 | -1.48 ± 0.28
ACAGAGCAAUAUUACGGUCG | -2.29 ± 0.11 | -1.36 ± 0.16

Source: the supplement of paper PMC7877785
